Results: patent publication US20060253917A1 (published 2006)
Each block holds one binder with its values, some of them ahead of it.

Key:
[1] = target: T1, OsMADS45 aa 50-198 (Oryza sativa, UniProt P0C5B0 50-198); test: Y2H; output trait library
T1 construct: bait, Gal4 DBD fusion; also called PN20231; O. sativa MADS box protein MADS45
T1 sequence: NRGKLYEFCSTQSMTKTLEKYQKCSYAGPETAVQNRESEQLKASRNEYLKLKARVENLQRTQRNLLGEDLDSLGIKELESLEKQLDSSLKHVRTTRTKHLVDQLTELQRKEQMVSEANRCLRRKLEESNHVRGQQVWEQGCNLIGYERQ
Method in brief: (§1)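 A rice prey library, either the input trait or the output trait library, was screened with a bait clone encoding a defined amino-acid fragment of a rice protein. Screening used an automated, high-throughput yeast two-hybrid assay provided by Myriad Genetics Inc. (Salt Lake City, Utah). Retrieved prey clones had their encoding sequences compared by BLAST against databases so the interacting proteins could be identified.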

[2] = target: T2, OsHOS59 aa 1-206 (Oryza sativa, UniProt Q94LW4 113-311); test: Y2H; output trait library
T2 construct: bait, Gal4 DBD fusion; also called PN20559
T2 sequence: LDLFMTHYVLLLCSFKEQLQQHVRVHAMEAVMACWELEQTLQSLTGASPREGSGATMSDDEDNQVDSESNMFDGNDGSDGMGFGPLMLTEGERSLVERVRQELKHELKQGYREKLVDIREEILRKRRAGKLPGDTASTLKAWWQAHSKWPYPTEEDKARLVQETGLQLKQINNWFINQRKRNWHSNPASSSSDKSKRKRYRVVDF
Method in brief: as §1

[3] = target: T1, OsMADS45 aa 50-198; test: Y2H; input trait library
Method in brief: as §1

[4] = target: T3, OsHSP70 aa 138-360 (Oryza sativa); test: Y2H; output trait library
T3 construct: bait, Gal4 DBD fusion; also called PN20775; heat shock protein hsp70
T3 sequence (chain, as listed by the source): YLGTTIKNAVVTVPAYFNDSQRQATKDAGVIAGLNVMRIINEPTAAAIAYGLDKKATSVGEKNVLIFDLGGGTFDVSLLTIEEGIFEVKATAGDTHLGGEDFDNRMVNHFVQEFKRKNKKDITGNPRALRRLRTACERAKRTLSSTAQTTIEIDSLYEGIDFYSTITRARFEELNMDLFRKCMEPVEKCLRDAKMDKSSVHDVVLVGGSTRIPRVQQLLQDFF
Method in brief: (§2)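 The values record whether an interaction was detected. In an automated, high-throughput yeast two-hybrid screen from Myriad Genetics Inc., rice protein fragments defined by amino-acid range were used as bait against rice prey clone libraries. Full-length genes were identified by BLAST comparison of the sequences encoding the interacting prey fragments against databases.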

[5] = target: T4, OsMADS6 aa 50-200 (Oryza sativa, UniProt Q6EU39 50-200); test: Y2H; input trait library
T4 construct: bait, Gal4 DBD fusion; also called PN20233
T4 sequence: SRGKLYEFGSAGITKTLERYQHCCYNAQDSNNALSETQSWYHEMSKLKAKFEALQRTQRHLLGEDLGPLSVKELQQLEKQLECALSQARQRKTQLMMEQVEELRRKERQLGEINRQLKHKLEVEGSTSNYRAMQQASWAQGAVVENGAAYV
Method in brief: as §1

[6] = target: T5, OsTFX1 aa 400-629 (Oryza sativa); test: Y2H; output trait library
T5 construct: bait, Gal4 DBD fusion; also called PN19697; O. sativa Putative Transcription Factor X1
T5 sequence (chain, as listed by the source): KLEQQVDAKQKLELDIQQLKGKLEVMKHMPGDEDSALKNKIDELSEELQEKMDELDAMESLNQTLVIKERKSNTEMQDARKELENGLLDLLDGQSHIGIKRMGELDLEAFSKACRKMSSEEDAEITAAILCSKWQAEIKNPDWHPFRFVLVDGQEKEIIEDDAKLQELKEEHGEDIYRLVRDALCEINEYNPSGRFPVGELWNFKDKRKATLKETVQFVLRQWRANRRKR
Method in brief: as §1

[7] = target: T6, OsSGT1 aa 200-368 (Oryza sativa, UniProt Q0JL44 200-367); test: Y2H; output trait library
T6 construct: bait, Gal4 DBD fusion; also called PN20285
T6 sequence: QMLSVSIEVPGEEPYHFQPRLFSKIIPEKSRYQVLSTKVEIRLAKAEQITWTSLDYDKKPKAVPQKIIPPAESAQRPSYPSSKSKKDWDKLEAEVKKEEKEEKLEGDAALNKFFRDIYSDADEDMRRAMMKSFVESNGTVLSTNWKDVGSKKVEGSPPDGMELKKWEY
Method in brief: as §2

[8] = target: T7, OsMADS45 aa 61-248 (Oryza sativa, UniProt P0C5B0 61-248); test: Y2H; output trait library
T7 construct: prey, AD fusion; also called PN20231
T7 sequence: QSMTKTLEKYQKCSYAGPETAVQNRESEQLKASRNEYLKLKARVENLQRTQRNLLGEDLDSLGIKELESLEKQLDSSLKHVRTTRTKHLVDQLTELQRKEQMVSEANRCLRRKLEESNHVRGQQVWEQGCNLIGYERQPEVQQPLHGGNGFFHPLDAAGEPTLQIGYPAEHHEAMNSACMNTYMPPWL
Method in brief: as §1

B1: OsMADS14 aa 82-197 (other)
chain: SAESDTQGNWCHEYRKLKAKVETIQKCQKHLMGEDLESLNLKELQQLEQQLENSLKHIRSRKSQLMLESINELQRKEKSLQEENKVLQKELVEKQKVQKQQVQWDQTQPQTSSSSS
notes: prey, AD fusion; also called PN20910
binding result [1]: binds

B2: OsPN23829 aa 1-247 (other)
chain: MALSVEKTSSGREYKVKDLSQADFGRLEIELAEVEMPGLMACRAEFGPSQPFKGARISGSLHMTIQTAVLIETLTALGAEVRWCSCNIFSTQDHAAAAIARDSAAVFAWKGETLEEYWWCTERCLDWGVGGGPDLIVDDGGDATLLIHEGVKAEEEFEKSGKVPDPESTDNAEFKIVLTIIRDGLKSDPSKYRKMKERLVGVSEETTTGVKRLYQMQETGALLFPAINVNDSVTKSKFDNLYGCRHS
notes: prey, AD fusion
binding result [2]: binds

B3: OsPN23495 aa 12-198 (other)
chain: PPAAAEDGRVTSHVDPFLVEALDNPRHRLMVLRMAMDIQKFMQNPQLHEFEFQHFPTSYLRCAAHRVAQHYGLETTVADSLVDGSVSKIVAKKTSESKLPVIALSEVPSKQARNEHEAAEKLKFVICPRPKAFQNGAGDAGAKNNAARTVEERIEEYNKARARIFNGSISDIEGTSDLGALSVARDE
notes: prey, AD fusion
binding result [3]: binds

B4: OsPN29117 aa 29-160 (other)
chain: VPAHSTFGELKGVLTQATGVEPERQRLFFRGKEKSDNEFLHTAGVKDGAKLLLLEKPAPANVEQRAEPVIMDESMMKACEAVGRVRAEVDRLSAKVCDLEKSVFAGRKIEDKDFVVLTELLMMELLKLDGIE
notes: prey, AD fusion
binding result [4]: binds

B5: OsPN30858 aa 230-400 (other)
chain: VRTFLERTHERCRASYMEAVLEKQSYILLSRNDVESLMRLDPANLSLQNSFGQLDHSIPDAEAVEVEIELSDLLLDMCPIKQENLIHDDQKLILLASLSDSLEYLADSVERLGESFINSSTMLENKNHIHQGRHTRSTSAIPKSLASLANEYRRLAIDCVRVLRLEMQLET
notes: prey, AD fusion; also called Novel Protein PN30858
binding result [2]: binds

B6: OsMADS14 aa 124-223 (other)
chain: ELQQLEQQLENSLKHIRSRKSQLMLESINELQRKEKSLQEENKVLQKELVEKQKVQKQQVQWDQTQPQTSSSSSSFMMREALPTTNISNYPAAAGERIED
notes: as for B1
binding result [1]: binds

B7: OsRAP1B aa 1-188 (other)
chain: MGRGKVQLKRIENKINRQVTFSKRRSGLLKKANEISVLCDAEVALIIFSTKGKLYEYATDSCMDKILERYERYSYAEKVLISAESDTQGNWCHEYRKLKAKVETIQKCQKHLMGEDLESLNLKELQQLEQQLENSLKHIRSRKSQLMLESINELQRKEKSLQEENKVLQKELVEKQKVQKQQLQWDQT
notes: prey, AD fusion; also called PN20232
binding result [5]: binds

B8: OsPN23829 prey clone -4-226 (other)
chain: MALSVEKTSSGREYKVKDLSQADFGRLEIELAEVEMPGLMACRAEFGPSQPFKGARISGSLHMTIQTAVLIETLTALGAEVRWCSCNIFSTQDHAAAAIARDSAAVFAWKGETLEEYWWCTERCLDWGVGGGPDLIVDDGGDATLLIHEGVKAEEEFEKSGKVPDPESTDNAEFKIVLTIIRDGLKSDPSKYRKMKERLVGVSEETTTGVKRLYQMQETGALLFPA
notes: prey, AD fusion
binding result [6]: binds

B9: OsPN23495 aa 39-165 (other)
chain: RLMVLRMAMDIQKFMQNPQLHEFEFQHFPTSYLRCAAHRVAQHYGLETTVADSLVDGSVSKIVAKKTSESKLPVIALSEVPSKQARNEHEAAEKLKFVICPRPKAFQNGAGDAGAKNNAARTVEERI
notes: prey, AD fusion; also called Novel protein PN23495
binding result [3]: binds

Second part, the binder after the results:

binding result [7]: binds
B10: OsSGT1 aa 9-227 (other)
chain: LESKAKAAFVDDDFELAAELYTQAIEASPATAELYADRAQAHIKLGNYTEAVADANKAIELDPSMHKAYLRKGAACIRLEEYQTAKAALELGYSFASGDSRFTRLMKECDERIAEELTEVPVKKAEDGAAAPSVASFVEEKDDAANMDNTPPMVEVKPKYRHDFYNSATEVVLTIFAKGVPAENVVVDFGEQMLSVSIEVPGEEPYHFQPRLFSKIIPE
notes: prey, AD fusion; also called PN20285

binding result [7]: binds
B11: PN23949 aa 244-418 (other)
chain: HKLKSSLILMPMVSLLLLLLIRVLGRNRISPSPALSTLPKDEVERMVEEADKFAQEDKEKRDAIDTKNQADSVVYQTEKQLKELGDKVPAPVKEKVDAKLNELKEAIAGGSTQSMKDAMAALNEEVMQIGQAMYNQQPNAGAAGPTPGADAGPTSSGGKGPNDGDVIDADFTDSN
notes: prey, AD fusion; also called HSP70-like

binding result [4]: binds
B12: OsPN29117 aa 11-160 (other)
chain: GPAVRLRVSHGASFRDVAVPAHSTFGELKGVLTQATGVEPERQRLFFRGKEKSDNEFLHTAGVKDGAKLLLLEKPAPANVEQRAEPVIMDESMMKACEAVGRVRAEVDRLSAKVCDLEKSVFAGRKIEDKDFVVLTELLMMELLKLDGIE
notes: prey, AD fusion

binding result [8]: binds
B13: OsRAP1B aa 30-180 (other)
chain: KKANEISVLCDAEVALIIFSTKGKLYEYATDSCMDKILERYERYSYAEKVLISAESDTQGNWCHEYRKLKAKVETIQKCQKHLMGEDLESLNLKELQQLEQQLENSLKHIRSRKSQLMLESINELQRKEKSLQEENKVLQKELVEKQKVQK
notes: bait, Gal4 DBD fusion; also called PN20232

binding result [6]: binds
B14: OsPN23829 prey clone -2-195 (other)
chain: MALSVEKTSSGREYKVKDLSQADFGRLEIELAEVEMPGLMACRAEFGPSQPFKGARISGSLHMTIQTAVLIETLTALGAEVRWCSCNIFSTQDHAAAAIARDSAAVFAWKGETLEEYWWCTERCLDWGVGGGPDLIVDDGGDATLLIHEGVKAEEEFEKSGKVPDPESTDNAEFKIVLTIIRDGLKSDPSKYRKM
notes: prey, AD fusion
